According to PMC10164577, “CAF-1 deposits newly synthesized histones during DNA replication using distinct mechanisms on the leading and lagging strands”:

Target: CAF-1 (Cac1-Cac2-Cac3) (Saccharomyces cerevisiae? (yeast), UniProt Q12495;Q04199;P13712 1-606;1-468;1-422)
Test: EMSA; EMSA: 25 mM Tris pH 7.5, 150 mM NaCl, 1 mM EDTA, 0.02% Tween-20, 1 mM TCEP, 50 nM DNA, 6% PAGE; SEC: 50 mM HEPES pH 7.5, 200 mM NaCl, 0.01% IGEPAL, 1 mM TCEP, 10 mM MgCl2, PCNA loading at 30 C with 3 mM ATP, CAF-1 at room temperature
Settings: protein: recombinant, chain copies: 2;2;2, blunt

Binder	Kd [µM]	Kd (label: 5' Alexa Fluor 647 on forward strand) [µM]
53 bp DNA (dsDNA) DNA 1: CGGTGCTAGAGCTGTCTACGAGCAATTGAGCGGCCTCGGCACCGGGATTCTGA DNA 2: TCAGAATCCCGGTGCCGAGGCCGCTCAATTGCTCGTAGACAGCTCTAGCACCG	0.18	
33 bp DNA (dsDNA) DNA 1: GCTGTCTACGAGCAATTGAGCGGCCTCGGCACC DNA 2: GGTGCCGAGGCCGCTCAATTGCTCGTAGACAGC		0.33
43 bp DNA (dsDNA) DNA 1: CTAGAGCTGTCTACGAGCAATTGAGCGGCCTCGGCACCGGGAT DNA 2: ATCCCGGTGCCGAGGCCGCTCAATTGCTCGTAGACAGCTCTAG	0.23	
